Target: Mtb UvrD1 WT (Mycobacterium tuberculosis H37Rv, UniProt P9WMQ1 1-771)
Experiment: tryptophan fluorescence dissociation kinetics

Sequence of Mtb UvrD1 WT (P9WMQ1 whole entry): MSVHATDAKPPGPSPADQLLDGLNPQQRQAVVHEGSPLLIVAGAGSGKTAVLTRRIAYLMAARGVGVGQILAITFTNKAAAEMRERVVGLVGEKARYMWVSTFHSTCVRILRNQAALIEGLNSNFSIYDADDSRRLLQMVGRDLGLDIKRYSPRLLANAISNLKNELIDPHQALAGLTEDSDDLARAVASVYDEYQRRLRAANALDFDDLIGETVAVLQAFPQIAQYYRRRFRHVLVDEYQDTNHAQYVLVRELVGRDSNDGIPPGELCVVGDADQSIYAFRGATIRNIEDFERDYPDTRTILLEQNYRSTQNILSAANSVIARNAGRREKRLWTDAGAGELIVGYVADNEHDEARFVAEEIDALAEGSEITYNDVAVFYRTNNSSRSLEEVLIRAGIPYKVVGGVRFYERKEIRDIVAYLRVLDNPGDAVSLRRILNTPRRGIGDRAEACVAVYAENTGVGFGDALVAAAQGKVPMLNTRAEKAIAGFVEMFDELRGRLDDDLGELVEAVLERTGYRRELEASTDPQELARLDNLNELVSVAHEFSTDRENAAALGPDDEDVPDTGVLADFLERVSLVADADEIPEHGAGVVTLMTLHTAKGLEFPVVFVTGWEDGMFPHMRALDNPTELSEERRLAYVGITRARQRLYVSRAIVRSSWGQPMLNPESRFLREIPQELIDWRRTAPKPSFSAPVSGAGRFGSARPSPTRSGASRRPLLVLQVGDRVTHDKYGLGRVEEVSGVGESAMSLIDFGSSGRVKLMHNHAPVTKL

B1: (dT)100 (ssDNA)
DNA: TTTTTTTTTTTTTTTTTTTTTTTTTTTTTTTTTTTTTTTTTTTTTTTTTTTTTTTTTTTTTTTTTTTTTTTTTTTTTTTTTTTTTTTTTTTTTTTTTTTT
- binding result: binds

Reference: PMC8872793
